Experimental findings from publication doi:10.1101/2021.09.02.458805 (bioRxiv, 2021) are described below.

To fix the notation:
B1: Cft2(S), residues 1-720 (domain or fragment, S. cerevisiae, UniProt Q12102 1-720, looked up)
chain: MTYKYNCCDDGSGTTVGSVVRFDNVTLLIDPGWNPSKVSYEQCIKYWEKVIPEIDVIILSQPTIECLGAHSLLYYNFTSHFISRIQVYATLPVINLGRVSTIDSYASAGVIGPYDTNKLDLEDIEISFDHIVPLKYSQLVDLRSRYDGLTLLAYNAGVCPGGSIWCISTYSEKLVYAKRWNHTRDNILNAASILDATGKPLSTLMRPSAIITTLDRFGSSQPFKKRSKIFKDTLKKGLSSDGSVIIPVDMSGKFLDLFTQVHELLFESTKINAHTQVPVLILSYARGRTLTYAKSMLEWLSPSLLKTWENRNNTSPFEIGSRIKIIAPNELSKYPGSKICFVSEVGALINEVIIKVGNSEKTTLILTKPSFECASSLDKILEIVEQDERNWKTFPEDGKSFLCDNYISIDTIKEEPLSKEETEAFKVQLKEKKRDRNKKILLVKRESKKLANGNAIIDDTNGERAMRNQDILVENVNGVPPIDHIMGGDEDDDEEEENDNLLNLLKDNSEKSAAKKNTEVPVDIIIQPSAASKHKMFPFNPAKIKKDDYGTVVDFTMFLPDDSDNVNQNSRKRPLKDGAKTTSPVNEEDNKNEEEDGYNMSDPISKRSKHRASRYSGFSGTGEAENFDNLDYLKIDKTLSKRTISTVNVQLKCSVVILNLQSLVDQRSASIIWPSLKSRKIVLSAPKQIQNEEITAKLIKKNIEVVNMPLNKIVEFSTTI
B2: Yth1 (natural protein, S. cerevisiae, UniProt Q06102 1-208, looked up)
chain: MSLIHPDTAKYPFKFEPFLRQEYSFSLDPDRPICEFYNSREGPKSCPRGPLCPKKHVLPIFQNKIVCRHWLRGLCKKNDQCEYLHEYNLRKMPECVFFSKNGYCTQSPDCQYLHIDPASKIPKCENYEMGFCPLGSSCPRRHIKKVFCQRYMTGFCPLGKDECDMEHPQFIIPDEGSKLRIKRDDEINTRKMDEEKERRLNAIINGEV
B3: Pfs2 with SII tag, as subunit of the purified polymerase module (natural protein, S. cerevisiae, UniProt P42841 1-465, looked up)
chain: MDGHNQNQYQNQNQIQQSQQPPLKKYVTQRRSVDVSSPYINLYYNRRHGLPNLVVEPETSYTIDIMPPNAYRGRDRVINLPSKFTHLSSNKVKHVIPAIQWTPEGRRLVVATYSGEFSLWNASSFTFETLMQAHDSAVTTMKYSHDSDWMISGDADGMIKIWQPNFSMVKEIDAAHTESIRDMAFSSNDSKFVTCSDDNILKIWNFSNGKQERVLSGHHWDVKSCDWHPEMGLIASASKDNLVKLWDPRSGNCISSILKFKHTVLKTRFQPTKGNLLMAISKDKSCRVFDIRYSMKELMCVRDETDYMTLEWHPINESMFTLACYDGSLKHFDLLQNLNEPILTIPYAHDKCITSLSYNPVGHIFATAAKDRTIRFWTRARPIDPNAYDDPTYNNKKINGWFFGINNDINAVREKSEFGAAPPPPATLEPHALPNMNGFINKKPRQEIPGIDSNIKSSTLPGLSI

One assay concerns the target T1, Cft1 (S. cerevisiae, UniProt Q06632 1-1357).
T1 sequence (looked up): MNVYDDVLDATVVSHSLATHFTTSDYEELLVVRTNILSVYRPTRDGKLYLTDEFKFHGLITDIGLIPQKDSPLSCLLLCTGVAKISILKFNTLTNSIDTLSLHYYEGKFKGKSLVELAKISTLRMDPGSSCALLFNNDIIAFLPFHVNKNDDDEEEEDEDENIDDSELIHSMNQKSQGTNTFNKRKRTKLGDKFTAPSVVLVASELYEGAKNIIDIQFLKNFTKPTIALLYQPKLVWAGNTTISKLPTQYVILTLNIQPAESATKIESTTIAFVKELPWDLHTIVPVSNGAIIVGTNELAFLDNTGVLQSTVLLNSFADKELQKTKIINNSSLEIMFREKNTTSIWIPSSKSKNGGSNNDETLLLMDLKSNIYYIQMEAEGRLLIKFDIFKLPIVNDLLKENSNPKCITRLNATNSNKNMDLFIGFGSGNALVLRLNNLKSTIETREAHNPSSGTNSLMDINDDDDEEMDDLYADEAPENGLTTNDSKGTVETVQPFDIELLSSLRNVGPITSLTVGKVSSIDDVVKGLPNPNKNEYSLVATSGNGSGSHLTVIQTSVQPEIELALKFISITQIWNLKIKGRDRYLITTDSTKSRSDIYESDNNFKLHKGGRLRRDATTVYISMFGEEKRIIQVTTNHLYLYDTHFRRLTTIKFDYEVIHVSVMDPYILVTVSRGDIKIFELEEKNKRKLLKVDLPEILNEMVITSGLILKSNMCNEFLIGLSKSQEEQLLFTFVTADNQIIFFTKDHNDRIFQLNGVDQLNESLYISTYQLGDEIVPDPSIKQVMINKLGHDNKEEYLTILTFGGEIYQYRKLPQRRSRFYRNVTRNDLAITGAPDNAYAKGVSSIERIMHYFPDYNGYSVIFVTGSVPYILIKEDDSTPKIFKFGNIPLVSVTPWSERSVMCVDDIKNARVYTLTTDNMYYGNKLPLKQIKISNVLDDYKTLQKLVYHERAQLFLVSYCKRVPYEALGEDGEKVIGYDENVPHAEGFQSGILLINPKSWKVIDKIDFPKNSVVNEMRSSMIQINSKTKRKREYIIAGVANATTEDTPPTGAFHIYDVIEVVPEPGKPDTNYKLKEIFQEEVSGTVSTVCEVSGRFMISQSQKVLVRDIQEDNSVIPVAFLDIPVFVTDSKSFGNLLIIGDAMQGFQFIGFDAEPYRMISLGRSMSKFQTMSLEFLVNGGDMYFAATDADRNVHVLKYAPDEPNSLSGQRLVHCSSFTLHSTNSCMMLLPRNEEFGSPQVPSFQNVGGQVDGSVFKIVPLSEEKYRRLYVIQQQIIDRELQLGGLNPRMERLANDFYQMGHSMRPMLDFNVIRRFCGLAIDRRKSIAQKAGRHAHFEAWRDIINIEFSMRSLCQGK
The assay can be described thus: cryo-EM structure.

For assay [1], the target named is B1. In words: cross-linking.
The target in assay [2] is B1. The assay can be described thus: cryo-EM structure.

Turning to B1, the binding result with Cft1 is on record as “binds”. As to B2, the binding result with Cft2(S), residues 1-720 [1] is “binds”.

Regarding B3, the binding result with Cft2(S), residues 1-720 [2] is “binds”.
